# From patent US20060142193
# T1: serum response factor (SRF), P11831
# T1 chain: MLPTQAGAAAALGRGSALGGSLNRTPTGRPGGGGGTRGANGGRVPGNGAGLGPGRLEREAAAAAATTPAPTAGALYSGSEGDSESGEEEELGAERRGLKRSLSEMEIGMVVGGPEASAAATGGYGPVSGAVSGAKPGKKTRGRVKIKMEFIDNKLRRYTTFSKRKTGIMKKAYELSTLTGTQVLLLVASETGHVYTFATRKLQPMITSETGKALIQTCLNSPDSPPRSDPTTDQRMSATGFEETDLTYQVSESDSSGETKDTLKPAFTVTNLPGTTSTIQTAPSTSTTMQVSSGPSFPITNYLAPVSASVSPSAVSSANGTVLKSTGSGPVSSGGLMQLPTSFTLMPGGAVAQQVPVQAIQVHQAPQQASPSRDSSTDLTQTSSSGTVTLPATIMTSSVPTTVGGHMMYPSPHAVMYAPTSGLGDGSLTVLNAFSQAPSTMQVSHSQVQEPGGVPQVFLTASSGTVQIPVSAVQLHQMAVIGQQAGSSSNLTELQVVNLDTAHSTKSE
# Target: T1, serum response factor (SRF), P11831
protein,measurement,value
ROCK1Δ1 (C-terminally truncated mutant (1-1080) of ROCK1) (protein) MSTGDSFETRFEKMDNLLRDPKSEVNSDCLLDGLDALVYDLDFPALRKNKNIDNFLSRYKDTINKIRDLRMKAEDYEVVKVIGRGAFGEVQLVRHKSTRKVYAMKLLSKFEMIKRSDSAFFWEERDIMAFANSPWVVQLFYAFQDDRYLYMVMEYMPGGDLVNLMSNYDVPEKWARFYTAEVVLALDAIHSMGFIHRDVKPDNMLLDKSGHLKLADFGTCMKMNKEGMVRCDTAVGTPDYISPEVLKSQGGDGYYGRECDWWSVGVFLYEMLVGDTPFYADSLVGTYSKIMNHKNSLTFPDDNDISKEAKNLICAFLTDREVRLGRNGVEEIKRHLFFKNDQWAWETLRDTVAPVVPDLSSDIDTSNFDDLEEDKGEEETFPIPKAFVGNQLPFVGFTYYSNRRYLSSANPNDNRTSSNADKSLQESLQKTIYKLEEQLHNEMQLKDEMEQKCRTSNIKLDKIMKELDEEGNQRRNLESTVSQIEKEKMLLQHRINEYQRKAEQENEKRRNVENEVSTLKDQLEDLKKVSQNSQLANEKLSQLQKQLEEANDLLRTESDTAVRLRKSHTEMSKSISQLESLNRELQERNRILENSKSQTDKDYYQLQAILEAERRDRGHDSEMIGDLQARITSLQEEVKHLKHNLEKVEGERKEAQDMLNHSEKEKNNLEIDLNYKLKSLQQRLEQEVNEHKVTKARLTDKHQSIEEAKSVAMCEMEKKLKEEREAREKAENRVVQIEKQCSMLDVDLKQSQQKLEHLTGNKERMEDEVKNLTLQLEQESNKRLLLQNELKTQAFEADNLKGLEKQMKQEINTLLEAKRLLEFELAQLTKQYRGNEGQMRELQDQLEAEQYFSTLYKTQVKELKEEIEEKNRENLKKIQELQNEKETLATQLDLAETKAESEQLARGLLEEQYFELTQESKKAASRNRQEITDKDHTVSRLEEANSMLTKDIEILRRENEELTEKMKKAEEEYKLEKEEEISNLKAAFEKNINTERTLKTQAVNKLAEIMNRKDFKIDRKKANTQDLRKKEKENRKLQLELNQEREKFNQMVVKHQKELNDMQAQLVEECAHRNELQMQL,level of full-length SRF after incubation with active caspase 3 in the presence or absence of ROCK1Δ1,The full-length level was markedly decreased in the presence of active ROCK1
